B1: TYRO protein tyrosine kinase-binding protein (Homo sapiens), O43914 (parent)
chain: MGGLEPCSRLLLLPLLLAVSGLRPVQAQAQSDCSCSTVSPGVLAGIVMGDLVLTVLIALAVYFLGRLVPRGRGAAEAATRKQRITETESPYQELQGQRSDVYSDLNTQRPYYK
B2: Hematopoietic cell signal transducer (Homo sapiens), Q9UBK5 (parent)
chain: MIHLGHILFLLLLPVAAAQTTPGERSSLPAFYPGTSGSCSGCGSLSLPLLAGLVAADAVASLLIVGAVFLCARPRRSPAQEDGKVYINMPGRG

What was measured:
[1] = variants of: B1; conditions: with nkg2c_human KLRC2, P26717
[2] = variants of: B1; conditions: with ki2s3_human KIR2DS3, Q14952
Chain of ki2s3_human KIR2DS3, Q14952 (Q14952 whole entry): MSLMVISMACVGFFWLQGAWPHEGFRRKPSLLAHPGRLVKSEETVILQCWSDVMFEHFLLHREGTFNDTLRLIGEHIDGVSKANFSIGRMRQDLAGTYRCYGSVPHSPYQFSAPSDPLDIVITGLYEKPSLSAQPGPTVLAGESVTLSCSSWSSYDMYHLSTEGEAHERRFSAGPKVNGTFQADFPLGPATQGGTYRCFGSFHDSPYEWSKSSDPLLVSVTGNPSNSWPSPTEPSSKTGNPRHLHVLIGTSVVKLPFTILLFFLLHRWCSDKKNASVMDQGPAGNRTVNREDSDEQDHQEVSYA

[3] = variants of: B2; conditions: with nkg2d_human KLRK1, P26718
Chain of nkg2d_human KLRK1, P26718 (P26718 whole entry): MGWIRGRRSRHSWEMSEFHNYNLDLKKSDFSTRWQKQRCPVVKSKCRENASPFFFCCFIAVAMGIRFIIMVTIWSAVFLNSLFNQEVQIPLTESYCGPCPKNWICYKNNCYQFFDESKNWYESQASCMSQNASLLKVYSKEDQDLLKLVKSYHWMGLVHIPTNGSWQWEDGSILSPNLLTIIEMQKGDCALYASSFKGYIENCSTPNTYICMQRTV

Chain of nkg2c_human KLRC2, P26717 (P26717 whole entry): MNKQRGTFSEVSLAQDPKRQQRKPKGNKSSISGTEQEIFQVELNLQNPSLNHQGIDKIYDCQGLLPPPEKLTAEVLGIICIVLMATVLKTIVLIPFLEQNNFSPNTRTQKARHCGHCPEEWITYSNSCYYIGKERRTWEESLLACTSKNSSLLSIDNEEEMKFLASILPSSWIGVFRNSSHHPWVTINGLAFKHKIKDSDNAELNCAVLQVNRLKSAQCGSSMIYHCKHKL

effect of a mutation on the interaction [1]	effect of a mutation on the interaction [2]	effect of a mutation on the interaction [3]	Variant
decreasing interaction	decreasing interaction	–	T54A
decreasing interaction	decreasing interaction	–	A58F
–	–	decreasing interaction	D57A

— IntAct's records for PubMed 20890284
